Laboratory results published in publication PMC8622166.

Key:
[1] = target: RAC2 (human), P15153; test: stopped-flow fluorimetry; kon from kobs against increasing GDI concentrations mixed with 0.2 µM mdGDP-bound RHO GTPase; koff by displacement with excess unlabeled GDP-bound RHO protein; Kd = koff/kon; 25 °C, 30 mM Tris/HCl pH 7.5, 10 mM K2HPO4/KH2PO4 pH 7.5, 5 mM MgCl2, 3 mM DTT; details: remark: other sources report otherwise
[2] = target: RAC3 (human), P60763; test: as above; details: remark: other sources report otherwise

B1: GDI2, P52566 1-201 (natural protein)
chain: MTEKAPEPHVEEDDDDELDSKLNYKPPPQKSLKELQEMDKDDESLIKYKKTLLGDGPVVTDPKAPNVVVTRLTLVCESAPGPITMDLTGDLEALKKETIVLKEGSEYRVKIHFKVNRDIVSGLKYVQHTYRTGVKVDKATFMVGSYGPRPEEYEFLTPVEEAPKGMLARGTYHNKSFFTDDDKQDHLSWEWNLSIKKEWTE
Kd [1]: 18.8 µM
fold faster kon than GDI1 [2]: > 10 fold
fold slower koff than GDI1 [2]: < 4 fold
